Reference: publication PMC5349785 (Molecular Biology of the Cell, 2017)
Values belong to the binder of their own block, whether it stands above or below them.

Experiments:
[1] = target: T1, CSC with GFP-tagged Vps29 (CSC-GFP) (S. cerevisiae, UniProt P34110;P40335;P38759); assay: recruitment to giant unilamellar vesicles
[2] = target: T1, CSC with GFP-tagged Vps29 (CSC-GFP); assay: pull-down
[3] = target: T2, Vps35 with C-terminal TAP tag (S. cerevisiae, UniProt P34110 1-944); assay: tandem affinity purification
T2 sequence: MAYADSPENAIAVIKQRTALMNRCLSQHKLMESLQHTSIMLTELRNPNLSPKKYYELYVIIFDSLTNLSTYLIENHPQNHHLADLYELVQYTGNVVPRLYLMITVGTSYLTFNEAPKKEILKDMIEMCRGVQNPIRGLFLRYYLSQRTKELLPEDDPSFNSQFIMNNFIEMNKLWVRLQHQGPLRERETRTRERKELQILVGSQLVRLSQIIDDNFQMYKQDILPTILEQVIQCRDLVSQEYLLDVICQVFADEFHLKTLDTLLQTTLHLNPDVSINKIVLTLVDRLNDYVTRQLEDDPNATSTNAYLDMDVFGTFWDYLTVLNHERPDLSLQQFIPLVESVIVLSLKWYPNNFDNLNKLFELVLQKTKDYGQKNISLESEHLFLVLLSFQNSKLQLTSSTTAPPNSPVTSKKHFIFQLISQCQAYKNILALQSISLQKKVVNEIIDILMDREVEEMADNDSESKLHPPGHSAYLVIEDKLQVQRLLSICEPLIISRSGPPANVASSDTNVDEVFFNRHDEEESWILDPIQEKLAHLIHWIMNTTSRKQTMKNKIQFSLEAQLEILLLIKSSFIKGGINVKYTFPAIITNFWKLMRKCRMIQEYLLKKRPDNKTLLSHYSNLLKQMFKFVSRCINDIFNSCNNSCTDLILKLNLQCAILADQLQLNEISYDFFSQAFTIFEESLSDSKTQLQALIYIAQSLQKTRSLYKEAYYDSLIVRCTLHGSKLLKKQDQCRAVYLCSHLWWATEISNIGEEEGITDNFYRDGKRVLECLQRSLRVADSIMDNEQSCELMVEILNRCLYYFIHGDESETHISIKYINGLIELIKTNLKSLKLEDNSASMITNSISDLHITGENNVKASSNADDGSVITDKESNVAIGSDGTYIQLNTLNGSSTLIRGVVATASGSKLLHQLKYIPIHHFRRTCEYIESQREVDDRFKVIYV

binding result [1]: binds
B1: cytosolic domain of Vps10 (residues 1415-1579), His-tagged (domain or fragment)
chain: YDRGIRRNGGFARFGEIRLGDDGLIENNNTDRVVNNIVKSGFYVFSNIGSLLQHTKTNIAHAISKIRGRFGNRTGPSYSSLIHDQFLDEADDLLAGHDEDANDLSSFMDQGSNFEIEEDDVPTLEEEHTSYTDQPTTTDVPDTLPEGNEENIDRPDSTAPSNENQ
modifications: Cy5 label (Cyc-5 amine derivative) in Figures 3 and 4

binding result [2]: binds
B2: SNX-BAR complex with GFP-tagged Vps17 (SNX-BAR-GFP) (complex)
chain 1: MDYEDNLEAPVWDELNHEGDKTQSLVSNSIESIGQISTNEERKDNELLETTASFADKIDLDSAPEWKDPGLSVAGNPQLEEHDNSKADDLINSLAPEQDPIADLKNSTTQFIATRESGGALFTGNANSPLVFDDTIYDANTSPNTSKSISGRRSGKPRILFDSARAQRNSKRNHSLKAKRTTASDDTIKTPFTDPLKKAEKENEFVEEPLDDRNERRENNEGKFTASVEKNILEQVDRPLYNLPQTGANISSPAEVEENSEKFGKTKIGSKVPPTEKAVAFKVEVKDPVKVGELTSIHVEYTVISESSLLELKYAQVSRRYRDFRWLYRQLQNNHWGKVIPPPPEKQSVGSFKENFIENRRFQMESMLKKICQDPVLQKDKDFLLFLTSDDFSSESKKRAFLTGSGAINDSNDLSEVRISEIQLLGAEDAAEVLKNGGIDAESHKGFMSISFSSLPKYNEADEFFIEKKQKIDELEDNLKKLSKSLEMVDTSRNTLAASTEEFSSMVETLASLNVSEPNSELLNNFADVHKSIKSSLERSSLQETLTMGVMLDDYIRSLASVKAIFNQRSKLGYFLVVIENDMNKKHSQLGKLGQNIHSEKFREMRKEFQTLERRYNLTKKQWQAVGDKIKDEFQGFSTDKIREFRNGMEISLEAAIESQKECIELWETFYQTNL
chain 2: MTSAVPYDPYDDLDNNPFAEPQEEDSEPAATTTDGSSSMSEERVGTEQTAASVQDNGTANNIQNGLGEEGNATRSKTSNEHNENQQPSQPSERVILPERSDEKKKYTLLAKVTGLERFGSATGKKENPTIIFDCSTNLPTFRKQQYKNVKKSYEEFHQLFKYLNVAIQESFVPTLPSAYTTFGINSEEDRMKVTRNFQLWFNRLSQDPLIIRNEEVAFFIESDFNTYTPINKSKSLASGLKRKTLKQLAPPYDEITELAEFRPLVKSIYVVSQSLQEKLLRVSRNRKMMVQEENAFGQDFVNLDEHNKLYRRYGKILTAVGDIDSIIATMDMATLYDGLEWIVRDAYAVKEALTNRHFIMRNLVQAQQNSKAKQEQARRFRSRRDINPMKIDEALRQLKAAAKNEQVLTLKLQRITSNMIIERKQWISWYEEWIRSSIKEFTLRKIEYERKKLTLLERVRSDIRKADENGGLSRLGRHAVSNNNSDTSQTLKGDSWTGESNRKSQIPINKIAHTEFDDELFTEDDGYNSQDSDTTSLNARHAASLLGMSTK

binding result [3]: binds
B4: Vps29 (natural protein)
chain: MLLLALSDAHIPDRATDLPVKFKKLLSVPDKISQVALLGNSTKSYDFLKFVNQISNNITIVRGEFDNGHLPSTKKDKASDNSRPMEEIPMNSIIRQGALKIGCCSGYTVVPKNDPLSLLALARQLDVDILLWGGTHNVEAYTLEGKFFVNPGSCTGAFNTDWPIVFDVEDSDEAVTSEVDKPTKENQSEDDDAKGGSTGKEQPGSYTPKEGTAGERENENESNVKPENQFKEDEVDMSDSDINGSNSPSFCLLDIQGNTCTLYIYLYVNGEVKVDKVVYEKE

binding result [1]: binds
B5: fluorescently labeled Ypt7 without His tag (natural protein)
chain: MSSRKKNILKVIILGDSGVGKTSLMHRYVNDKYSQQYKATIGADFLTKEVTVDGDKVATMQVWDTAGQERFQSLGVAFYRGADCCVLVYDVTNASSFENIKSWRDEFLVHANVNSPETFPFVILGNKIDAEESKKIVSEKSAQELAKSLGDIPLFLTSAKNAINVDTAFEEIARSALQQNQADTEAFEDDYNDAINIRLDGENNSCSC
modifications: fluorescent label: ATTO (legend of Figure 5); DY-647 maleimide derivative (methods)

More lines, now with the values behind:

B3: SNX-BAR complex (Vps5-Vps17 heterodimer) (complex)
chain 1: B2 chain 1
chain 2: B2 chain 2
binding result [1]: binds

B6: Vps26 (natural protein)
chain: MSIFFKPPIDIEILFDNEESRKHVDIATRSSNSSYKSMKESLPVYEDGESLGGIVTLRVRDSKKVDHLGIKVSVIGSIDMLKSHGSGNSSSKKVTSSTSSSSSNGSVDVRKNSVDQFLCQSYDLCPAGELQHSQSFPFLFRDLSKRYESYKGKNVDVAYYVKVTVMRKSTDISKIKRFWVYLYNSVTTAPNTLSANETKATTNDIAGGNYAADNASDNTQTKSTQGEAADVNQVLPISHSNNEPKPVRLDIGIENCLHIEFEYAKSQYSLKEVIVGRIYFLLTRLRIKHMELSLITRESSGLQTSNVMTDSTAIRYEIMDGSSVKGETIPIRLFLSGYDLTPNMSCNYFNVKNYLSLVIIDEDGRRYFKQSEITLYRTR
binding result [3]: binds

B7: N-terminal fragment of Vps5 (residues 1-280) (domain or fragment)
chain: MDYEDNLEAPVWDELNHEGDKTQSLVSNSIESIGQISTNEERKDNELLETTASFADKIDLDSAPEWKDPGLSVAGNPQLEEHDNSKADDLINSLAPEQDPIADLKNSTTQFIATRESGGALFTGNANSPLVFDDTIYDANTSPNTSKSISGRRSGKPRILFDSARAQRNSKRNHSLKAKRTTASDDTIKTPFTDPLKKAEKENEFVEEPLDDRNERRENNEGKFTASVEKNILEQVDRPLYNLPQTGANISSPAEVEENSEKFGKTKIGSKVPPTEKAVA
binding result [2]: binds
